From patent US20240287501A1 (VIB VZW, published 2024) come the findings set out here.

B1: CA17562 (VHH)
VHH: QVQLVESGGGLVQPGGSLRLSCAASGFDFSRNRLNWHRQAPGKQRELVATIGSNGPRYADSVKDRFTISRDNEKNTVYLEMNSVKPEDTAVYYCAARGYWGQGTQVTVSS
notes: C-terminal 6xHis-EPEA tag is part of the entry
B2: CA17792 (VHH)
VHH: QVQLVESGGGLVQPGGSLRLSCAASGISFGSYTMAWYRQAPGKQRDMVADITTGGRTNYADSVKGRFTISRDNAKNTVYLQMNSLKSEDTAVYYCKADFAYGRDLTYWGQGTQVTVSS
notes: as for B1
B3: CA17795 (VHH)
VHH: QVQLVESGGGLVQPGGSLRLSCAASGSFFNINAMAWYRQAPGKQRELVAVIASSGRTNYADSVSGRFTISRDNAKNTVYLQMNSLKPEDTAVYYCNSKIRQASWNLVLSDHWGQGTQVTVSS
notes: as for B1
B4: CA17794 (VHH)
VHH: QVQLVESGGGLVQPGGSLRLSCTASGVTFSRYAMSWYRQAPGKERELVATITGAGSSTNYEDSVKGRFTISRDNAKNTVYLQMNSLKPEDTAVYYCYADHYGLGYLDYWGQGTQVTVSS
notes: as for B1
B5: CA17793 (VHH)
VHH: QVQLVESGGGLVRPGGSLRLSCAASGITFSSYTMGWYRQAPGKQRELVATITTGGSTNYAVSAKGRFTISRDNANNRVTLQMNSLNSEDTAAYYCHSRFAYGPLEYWGQGTQVTVSS
notes: as for B1
B6: CA17791 (VHH)
VHH: QVQLVESGGGLVQPGGSLRLSCAASGITFSSYAMGWYRQAPGKERELVARITSGGSTDYAVSVKGRFTISRDNANNLVYLQMNSLNSEDTAVYYCHSQYSYGPLEYWGQGTQVTVSS
notes: as for B1
B7: CA17796 (VHH)
VHH: B6 VHH with T28S, S30H, E44Q, A49S, R50T, S53T, N75K, L77T, S84N, S100A
notes: as for B1
B8: CA17520 (VHH)
VHH: QVQLVESGGGLVQTGGSLRLSCAASVRTFSNYIMGWFRQAPGKEREFVATISWSGINTYYADNVKGRFTISRDNARNTVYLQMNSLKPEDTAIYYCAAKSAVGYYHDSYASRAEEYDYWGQGTQVTVSS
notes: as for B1
B9: CA8780 (VHH)
VHH: QVQLQESGGGLVQPGGSLRLSCAPSGPFSPNSMGWYRQAPGKQRELVAVMTIDGRTNYQDSVKGRFTISRDYVKNTAYLQMNNLKPDDTAVYICNAETRGFMHWGQGTQVTVSS
notes: Control Nanobody; C-terminal 6xHis-EPEA tag is part of the entry; also called irrelevant Nb
B10: CA17676 (VHH)
VHH: QVQLVESGGGLVQAGGSLRLSCAGSGGTFSAYTMGWFRQGLGEERELVACISRSGASTFYTDPVKGRFTISRDNDKNTVYLQMNNLKPEDTAVYYCAADWTVIDEITEQRSKHQTSYDYWGQGTQVTVSS
notes: as for B1
B11: CA17518 (VHH)
VHH: QVQLVESGGGLVQAGGSLRLSCVTSGFTFDDYAIGWFRQAPGKEREGVSSISSSDGTTYYADSVKGRFTISSDNAKNTVYLQMNNLKPEDTAVYYCAADWAAWPSIRVGVGVPAYEYDYWGQGTQVTVSS
notes: as for B1
B12: CA17673 (VHH)
VHH: QVQLVESGGGLVQAGGSLRLSCAASARAFMNYIMGWFRQAPGKEREFVATISWSGVTTDYADNVKGRFTISRDNAKNTVSLQMNSLKPEDTAIYYCAAKSAVGYYSDIYNSRAKEYDYWGQGTQVTVSS
notes: as for B1
B13: CA17675 (VHH)
VHH: QVQLVESGGKLVPAGDSLRLSCAASGRTFSDYIIGWFRQVSGKERKFVAAIRRSDGETVYTDSVKGRFTISRDNAKNTVYLQMNSLKPEDTAVYYCYLNNRNSRGSMDAYWGQGTQVTVSS
notes: as for B1
B14: CA17519 (VHH)
VHH: QVQLVESGGGLVQPGGSLRLSCAASGRIFSIYVMGWYRQAPGKQRELVAQITNSGRTKFADSVKGRFTISRDNAKNMVYLQMNSLKAEDTAVYYCYADLDWYGGTANNDFWGQGTQVTVSS
notes: as for B1
B15: CA17517 (VHH)
VHH: QVQLVESGGGLVQPGGSLRLSCAASGRTFSNYIMGWFRQPPGKEREFVATISWSGSDTVYASSVKGRFTISRDNAKSTVYLQMNSLKPEDTAIYYCAAKDAVGYWSSDVYSEAKEYDYWGQGTQVTVSS
notes: as for B1
B16: CA17674 (VHH)
VHH: QVQLVESGGGLVQPGDFLRLSCAASDRTFSNYIMGWFRQAPGKEREFVATISWSGSDTVYASSVKGRFTISRDNAKSTVYLKMNSLKPEDTAIYYCAAKYAVGYWGNDVASEAKDYNYWGQGTQVTVSS
notes: as for B1

Substitutions are numbered along the chain they refer to.

T4 sequence (P12709 2-554): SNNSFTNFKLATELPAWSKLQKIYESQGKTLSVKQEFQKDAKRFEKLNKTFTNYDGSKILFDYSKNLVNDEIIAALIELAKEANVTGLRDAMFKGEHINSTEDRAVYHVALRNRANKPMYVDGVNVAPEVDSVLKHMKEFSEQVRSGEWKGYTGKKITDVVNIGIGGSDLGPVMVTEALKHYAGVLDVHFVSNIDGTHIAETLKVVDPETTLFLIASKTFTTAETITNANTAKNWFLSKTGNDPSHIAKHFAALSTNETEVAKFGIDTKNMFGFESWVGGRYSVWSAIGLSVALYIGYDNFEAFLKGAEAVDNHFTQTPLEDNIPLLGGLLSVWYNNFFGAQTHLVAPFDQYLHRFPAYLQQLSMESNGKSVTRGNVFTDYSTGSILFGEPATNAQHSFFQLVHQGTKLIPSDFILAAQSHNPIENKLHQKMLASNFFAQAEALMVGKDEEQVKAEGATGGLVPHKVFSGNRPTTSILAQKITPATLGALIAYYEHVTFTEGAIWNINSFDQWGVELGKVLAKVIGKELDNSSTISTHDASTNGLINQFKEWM

One test deals with T1, SSA1 (native, from EBY100 lysate) (Saccharomyces cerevisiae, UniProt P10591 2-642).
T1 construct: mature; Endogenous untagged protein; also called YAL005C
T1 sequence (P10591 2-642): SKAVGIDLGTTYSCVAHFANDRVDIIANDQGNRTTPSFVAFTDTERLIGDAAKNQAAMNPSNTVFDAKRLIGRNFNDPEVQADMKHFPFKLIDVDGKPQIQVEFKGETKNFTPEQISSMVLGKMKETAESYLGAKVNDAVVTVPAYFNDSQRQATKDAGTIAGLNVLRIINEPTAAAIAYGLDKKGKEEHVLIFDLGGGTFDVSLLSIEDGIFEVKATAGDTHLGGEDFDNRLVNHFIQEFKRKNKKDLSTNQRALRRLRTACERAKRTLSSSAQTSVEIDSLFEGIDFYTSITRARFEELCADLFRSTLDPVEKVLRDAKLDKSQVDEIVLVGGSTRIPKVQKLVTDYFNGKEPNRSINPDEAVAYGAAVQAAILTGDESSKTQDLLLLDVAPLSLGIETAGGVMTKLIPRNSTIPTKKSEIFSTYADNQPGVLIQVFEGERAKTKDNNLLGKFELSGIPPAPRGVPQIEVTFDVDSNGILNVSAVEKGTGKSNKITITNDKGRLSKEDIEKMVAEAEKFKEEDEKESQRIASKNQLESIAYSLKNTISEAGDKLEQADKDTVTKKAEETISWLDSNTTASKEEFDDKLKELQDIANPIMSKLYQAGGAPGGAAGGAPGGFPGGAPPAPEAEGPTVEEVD
The test is described as follows: co-IP, Nb on NHS-agarose beads, EBY100 yeast lysate, SDS-PAGE.
Turning to B1, the binding result was “binds”.

The target in a further test is T2, PGI1 (native, un-tagged, from EBY100 lysate) (Saccharomyces cerevisiae, UniProt P12709 2-554).
T2 construct: mature; Endogenous untagged protein, 61 kDa band; also called YBR196C; endogenous PGI1
T2 sequence (P12709 2-554): as the sequence (P12709 2-554) above
Briefly: co-immunoprecipitation, Nb coupled to NHS-agarose beads, EBY100 yeast lysate (native target), SDS-PAGE. The procedure: (§1) Each PGI1-specific Nanobody was covalently linked to NHS-agarose beads. The beads that were functionalized with these PGI1-specific Nanobodies were incubated for an hour at 4° C. on a rotating device with either an EBY100 lysate or the lysate of the engineered Yeast strain expressing PGI1 (Yeast GFP fusion collection reference: GFP(+)12, H11) as a GFP-tagged protein. After washing, these beads analyzed on SDS-PAGE (FIG. 14A). Separated proteins were transferred to a PVDF membrane and the Western blot was developed with a GFP-specific antibody to confirm the presence of GFP-tagged PGI1 (FIG. 14B). 55=Nb clone CA17455 corresponding to SEQ ID NO: 15, used as trapper/stripper for PGI1, serves as a positive control.
(§2) Individual clones were isolated from the enriched sub-library by plating tenfold serial dilutions of the overnight-grown phage-infected E. coli TG1 cells in LB. 96 individual clones were picked and grown in a 96-well plate containing LB supplemented with 100 μg/mL ampicillin. Plasmids containing the Nanobody encoding genes were purified, sequenced and grouped into sequence families (Material and methods). A representative member of each sequence family was selected. Six different PGI1 specific Nanobodies, derived from four different sequence families (Nb clone CA17791 corresponding to SEQ ID NO: 46, CA17792-SEQ ID NO:47, CA17793-SEQ ID NO:48, CA17794-SEQ ID NO:49, CA17795-SEQ ID NO:50, and CA17796-SEQ ID NO:51) were selected based on their CDR3 sequences. Their encoding plasmid was transformed into the E. coli WK6 expression strain to express and purify each Nanobody of interest. The specificity of the PGI1-specific Nanobodies was confirmed by linking separate Nanobodies on NHS-agarose beads for co-immunoprecipitation assays. The beads that were functionalized with these PGI1-specific Nanobodies and incubated for an hour at 4° C. on a rotating device with either an EBY100 lysate expressing native (un-tagged) PGI1 or the lysate of the engineered yeast strain (GFP(+)12, H11) expressing PGI1 as a GFP-tagged protein. After washing, these beads were resuspended in SDS-PAGE loading dye and analyzed on SDS-PAGE (FIG. 14A). Separated proteins were also transferred to PVDF membranes and the Western blot was developed with a GFP-specific antibody to confirm the presence of the GFP-tagged PGI1 (FIG. 14B).
As for B2, the binding result was “binds”. For B3, the binding result was “binds”. On the same count and under the same terms, the entry for B4 is “binds”; for B5 it is “binds”.

On to B6, for which the binding result was “binds”. For B7, the binding result is on record as “binds”.

A further test deals with T3, GFP protein (Aequorea victoria (Water jellyfish) …, UniProt P42212 1-238 = GFP, biotinylated with the EZ-Link sulfo-NHS-LC-biotinylation kit for the BLI assay; unmodified in the NANEX selections).
T3 construct: Purified GFP; also called wild type GFP; biotinylated GFP
Briefly: BLI (Octet), biotinylated GFP on streptavidin sensors saturated with CA12760, second step CA12760 + 2nd Nb. As to the method:
The binding properties of the newly discovered GFP-specific Nanobodies were analysed by a Bio-layer interferometry (BLI) on an OctetRed (molecular devices). Streptavidin-coated Octet® biosensors were used to capture biotinylated GFP (100 nM). Next, the picomolar GFP stripper (CA12760; SEQ ID NO:1) was allowed to bind to GFP until a plateau was reached. These CA12760-saturated biosensors were next incubated separately in solutions containing each newly discovered Nb (as indicated in the legend of the figure), supplemented with CA12760 Nb. Assays were performed in HEPES 25 mM pH 7.5, NaCl 150 mM supplemented with BSA 0.1% and Tween₂₀ 0.005% at room temperature.
Epitope analysis. […] For this we loaded the Streptavidin biosensor with biotinylated GFP, next we allowed CA12760 (SEQ ID NO:1), the GFP-stripper with picomolar affinity, to bind to GFP. After washing, this biosensor loaded with the GFP-CA12760 complex was incubated with the newly discovered Nbs.
Epitope mapping of GFP Nanobodies by Bio-layer interferometry (BLI). Streptavidin-coated Octet® biosensors were used to capture biotinylated GFP (100 nM). Unbound biotinylated GFP is washed off from biosensor by two washing steps (60 seconds in buffer). Next, Streptavidin-coated Octet® biosensors with GFP were first incubated for 400 seconds with 20 nM CA12760, the GFP stripper, washed briefly, followed by an incubation of 400 seconds in a premix of 20 nM CA12760 with the different Nbs to be tested. Data were analyzed on an OctetRed (molecular devices). All assays were performed in HEPES 25 mM pH 7.5, NaCl 150 mM supplemented with BSA 0.1% and Tween₂₀ 0.005% at room temperature.
(Biolayer interferometry detects binding as a change in optical thickness at a sensor tip.)
Take B8: the binding result is given as “binds”. The same measure, in the same setting: the entry for B9 is “no binding”; for B10 it is “binds”; for B11 it is “binds”. Take B12: the binding result is “binds”. Same read-out and setting: the entry for B13 is “binds”; for B14 it is “binds”. For the molecule B15, the binding result is on record as “binds”. In the case of B16, the binding result is “binds”.

The next test addresses T4, GFP-tagged PGI1 (Saccharomyces cerevisiae, UniProt P12709 2-554).
T4 construct: Yeast GFP Fusion Collection strain; 88 kDa band; also called GFP-PGI1; Yeast GFP fusion collection GFP(+)12, H11; not shown: GFP tag
Briefly: co-immunoprecipitation, Nb coupled to NHS-agarose beads, lysate of the yeast strain expressing the GFP-tagged target, SDS-PAGE. As to the method:
as §1, §2
Regarding B2, the binding result is recorded as “binds”. Same read-out and setting: under B3 stands “binds”. As to B4, the binding result is “binds”. The same measure, in the same setting: the entry for B5 is “binds”.

Consider B6, for which the binding result is recorded as “binds”. Still for that read-out and setting: the entry for B7 is “binds”.

The next test deals with T5, GFP-tagged SSA1 (Saccharomyces cerevisiae, UniProt P10591 2-642).
T5 construct: Yeast GFP Fusion Collection strain; also called Yeast GFP fusion collection GFP(+)10, E4; not shown: GFP tag
T5 sequence (P10591 2-642): as the sequence (P10591 2-642) above
Briefly: co-immunoprecipitation, Nb coupled to NHS-agarose beads, lysate of the yeast strain expressing the GFP-tagged target, Western blot anti-GFP. As to the method: Six SSA1-specific Nanobodies (60=Nb clone CA17560 corresponding to SEQ ID NO: 19, 61=CA17561-SEQ ID NO: 20, 62=CA17562-SEQ ID NO: 21, 63=CA17563-SEQ ID NO: 22, 64=CA17564-SEQ ID NO: 23, 65=CA17565-SEQ ID NO: 24) were characterized by co-immunoprecipitation assays. Each SSA1-specific Nanobodies was covalently linked to NHS-agarose beads. The beads that were functionalized with these SSA1-specific Nanobodies were incubated for an hour at 4° C. on a rotating device with either an EBY100 lysate or the lysate of the engineered Yeast strain expressing SSA1 (Yeast GFP fusion collection reference: GFP(+)10, E4) as a GFP-tagged protein. After washing, these beads were resuspended in SDS-PAGE loading dye and analyzed on SDS-PAGE (FIG. 6A). Separated proteins were transferred to a PVDF membrane and the Western blot (FIG. 6B) was developed with GFP-specific antibody to confirm the presence of GFP-tagged SSA1.
(In general: In western blotting, separated proteins are transferred to a membrane and probed.)
On to B1, for which the binding result is recorded as “binds”.
